Experimental data taken from paper PMC6696043, “Aptamers in Education: Undergraduates Make Aptamers and Acquire 21st Century Skills Along the Way”.

Assays:
[1] = molecular target: calf intestinal alkaline phosphatase (CIAP) (calf) (UniProt P19111); test: 32P-RNA binding assay; settings: RNA 5 nM, triplicate; Selection buffer 20 mM HEPES pH 7.5, 150 mM NaCl, 5 mM MgCl2, room temperature; binding assay conditions not separately stated (refers to cited protocol)
[2] = molecular target: T1, calf intestinal alkaline phosphatase (CIAP) (calf, UniProt P19111 20-506); test: 32P-RNA bead binding assay; not above no-protein beads; Selection buffer 20 mM HEPES pH 7.5, 150 mM NaCl, 5 mM MgCl2, room temperature; binding assay conditions not separately stated (refers to cited protocol); settings: protein: commercial; tags: biotinylated (Pierce 29339, 69 kDa); chain copies: 2; label: 32P
T1 sequence (P19111 20-506): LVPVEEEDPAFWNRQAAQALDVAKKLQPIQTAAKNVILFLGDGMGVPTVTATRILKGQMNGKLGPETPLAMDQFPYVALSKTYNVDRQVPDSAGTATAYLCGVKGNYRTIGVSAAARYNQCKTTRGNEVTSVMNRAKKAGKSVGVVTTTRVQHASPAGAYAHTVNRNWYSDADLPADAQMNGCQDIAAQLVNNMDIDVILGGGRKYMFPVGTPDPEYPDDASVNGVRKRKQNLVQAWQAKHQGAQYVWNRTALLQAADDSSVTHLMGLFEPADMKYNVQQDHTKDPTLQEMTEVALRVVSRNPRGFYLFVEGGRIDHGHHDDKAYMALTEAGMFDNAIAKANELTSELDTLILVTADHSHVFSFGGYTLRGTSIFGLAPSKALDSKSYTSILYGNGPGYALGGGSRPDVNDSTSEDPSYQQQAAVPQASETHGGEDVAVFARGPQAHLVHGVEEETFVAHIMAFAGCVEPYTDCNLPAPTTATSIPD

[3] = molecular target: T1, calf intestinal alkaline phosphatase …; test: 32P-RNA binding assay; Selection buffer 20 mM HEPES pH 7.5, 150 mM NaCl, 5 mM MgCl2, room temperature; binding assay conditions not separately stated (refers to cited protocol); settings: protein: commercial; tags: biotinylated (Pierce 29339, 69 kDa); chain copies: 2; label: 32P; stem-loop, GGG/CCC closing stem
[4] = molecular target: T2, human tissue-nonspecific alkaline phosphatase (human, UniProt P05186 18-501); test: 32P-RNA binding assay; up to 250 nM protein, single point; Selection buffer 20 mM HEPES pH 7.5, 150 mM NaCl, 5 mM MgCl2, room temperature; binding assay conditions not separately stated (refers to cited protocol); settings: protein: recombinant; chain copies: 2; label: 32P; stem-loop, GGG/CCC closing stem
T2 sequence: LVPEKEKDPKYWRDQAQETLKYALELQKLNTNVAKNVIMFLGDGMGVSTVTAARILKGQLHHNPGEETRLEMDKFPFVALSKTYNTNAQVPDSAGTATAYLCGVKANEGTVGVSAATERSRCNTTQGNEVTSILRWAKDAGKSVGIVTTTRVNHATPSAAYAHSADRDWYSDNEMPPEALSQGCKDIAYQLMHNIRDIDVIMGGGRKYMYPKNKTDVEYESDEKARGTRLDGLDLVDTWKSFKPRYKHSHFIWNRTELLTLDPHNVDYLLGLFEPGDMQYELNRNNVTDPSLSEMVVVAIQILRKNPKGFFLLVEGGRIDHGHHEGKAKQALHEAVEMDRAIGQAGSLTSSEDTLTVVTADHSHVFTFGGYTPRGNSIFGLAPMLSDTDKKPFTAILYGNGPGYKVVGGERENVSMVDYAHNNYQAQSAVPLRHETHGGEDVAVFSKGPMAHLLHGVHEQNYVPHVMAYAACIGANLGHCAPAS

[5] = molecular target: human intestinal alkaline phosphatase (human, UniProt P09923 20-503); test: as above; settings: protein: recombinant; chain copies: 2; label: 32P; stem-loop, GGG/CCC closing stem
human intestinal alkaline phosphatase, sequence (P09923 20-503): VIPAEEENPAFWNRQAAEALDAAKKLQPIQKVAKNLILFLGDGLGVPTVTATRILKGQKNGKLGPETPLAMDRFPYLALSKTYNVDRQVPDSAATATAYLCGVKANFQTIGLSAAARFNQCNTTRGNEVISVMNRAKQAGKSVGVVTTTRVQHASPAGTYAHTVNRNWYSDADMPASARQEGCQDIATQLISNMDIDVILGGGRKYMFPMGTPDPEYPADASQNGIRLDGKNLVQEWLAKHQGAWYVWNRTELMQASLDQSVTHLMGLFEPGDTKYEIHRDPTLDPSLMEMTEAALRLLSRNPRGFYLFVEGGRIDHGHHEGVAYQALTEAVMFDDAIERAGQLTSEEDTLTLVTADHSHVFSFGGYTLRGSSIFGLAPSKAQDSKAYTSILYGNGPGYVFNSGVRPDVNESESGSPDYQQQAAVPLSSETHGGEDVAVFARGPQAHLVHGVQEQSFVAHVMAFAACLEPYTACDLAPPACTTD

[6] = molecular target: T1, calf intestinal alkaline phosphatase …; test: 32P-RNA bead binding assay; not above no-protein beads; prefers naked beads; Selection buffer 20 mM HEPES pH 7.5, 150 mM NaCl, 5 mM MgCl2, room temperature; binding assay conditions not separately stated (refers to cited protocol); settings: protein: commercial; tags: biotinylated (Pierce 29339, 69 kDa); chain copies: 2; label: 32P
[7] = molecular target: T1, calf intestinal alkaline phosphatase …; test: 32P-RNA binding assay; RNA 5 nM, triplicate; Selection buffer 20 mM HEPES pH 7.5, 150 mM NaCl, 5 mM MgCl2, room temperature; binding assay conditions not separately stated (refers to cited protocol); settings: protein: commercial, tags: biotinylated (Pierce 29339, 69 kDa), chain copies: 2, label: 32P

calf intestinal alkaline phosphatase (CIAP) (calf), sequence (P19111 20-506): as the sequence (P19111 20-506) above

## GGGUUUACCUAGGUGUAGAUGCUUCWAUUGAUAUGUUAUAACUGAACUCAACAUAAGGAUAUGAUGUAUGAUCAAGUGACGUCUGAACUGCUUCGAA [aptamer clone 4-9]
[1]
  Kd: 9.4 nM

B1: clone c2-4 (structured_RNA)
RNA: GGGUUUACCUAGGUGUAGAUGCUUCUUCACUCCUUAUGAACACGUAGCGCUCAAUCAUCUCUAAUUAAUUCUCAAGUGACGUCUGAACUGCUUCGAA
[2]
  binding result: no binding

B2: minimized aptamer variant 3.1 (structured_RNA)
RNA: GGGUAGAUGCUGUAUAUAGCGAACUCAACAUAAGGUAUAAUUACAAUUUCUACCC
[3]
  Kd: 6.7 nM
[4]
  binding result: no binding
[5]
  binding result: no binding

B3: clone c2-1 (structured_RNA)
RNA: GGGUUUACCUAGGUGUAGAUGCUGAUAGAUUUCCCCUGACUUAGGAGCUCAUUAGAUUUUUAUUGUGUGGGGCAAGUGACGUCUGAACUGCUUCGAA
[6]
  binding result: no binding

B4: aptamer clone 3-6 (structured_RNA)
RNA: GGGUUUACCUAGGUGUAGAUGCUCUGCCCUUCAGAUUUAUCGAUGACCGUUGAACUCAACAUAAGACCUUCCAAAGUGACGUCUGAACUGCUUCGAA
[7]; VDH motif in loop and stem
  Kd: 10.8 nM

B5: aptamer clone 4-3 (structured_RNA)
RNA: GGGUUUACCUAGGUGUAGAUGCUGUAUAUAGCGAACUCAACAUAAGGUAUAAUUACAAUUUCUAUACUUCUUCAAGUGACGUCUGAACUGCUUCGAA
[7]; VDH motif in loop
  Kd: 5 nM
